Measured values as given in patent US20250000944A1, “USE OF RECOMBINANT CALRETICULIN IN HAIR GROWTH, HAIR BREEDING, HAIR PROTECTION OR ANTI-HAIR LOSS AND RELATED PRODUCT” (BEIJING YITUBAIHUI BIOTECH CO., LTD, priority 2021, published 2025).
Entries after “also recorded” stand apart in the source; their conditions may differ.

Test system: androgenic alopecia model
Assay: First experiment: testosterone-induced androgenic alopecia model, hair observed by dermatoscope and scanning electron microscopy
Format: in vivo, C57BL/6 male mice
Description: Experimental animals: C57BL/6 male mice, 6-7 weeks old, weighing (20±2) g, were provided by Beijing Vital River Laboratory Animal Technology Co. Ltd., with the animal license number of SCXK (Beijing) 2021-0006. They were kept in a 12 h light/12 h dark environment, with free access to food and water. The mice were divided into normal NC group (NC), model group (Model), positive control-minoxidil group (Minoxidil), positive control-finasteride group (Finasteride), experimental group A and experimental group B. The proteins were stored in a −70° C. refrigerator and diluted with physiological saline when used. Experimental group A used rh-CRT-1, with a concentration of 0.21 mg/ml. Experimental group B used rh-CRT-2, with a concentration of 0.21 mg/ml. There were 6 mice in each group.
The main reagents used are as follows: 4% paraformaldehyde (Beijing Solarbio Technology Co., Ltd., China), isoflurane (Rayward, China), testosterone (Shanghai Standard Biotechnology Co., Ltd., China), paraffin sectioner (Thermo, USA), small animal anesthesia machine (Rayward, China), and inverted microscope (Olympus, Japan).
Modeling and drug administration: First, the androgenic alopecia model was established. One day before the modeling, the hair in the central part of the back of the experimental animal was removed with a skin preparation knife, and the prepared area was depilated with a depilatory cream. After 24 hours of depilation, the modeling agent (testosterone, 5.0 mg/mL) was subcutaneously injected into the neck of the mice in groups except the NC group, with a total dose of 0.2 mL/mouse. The mice in the NC group were injected with an equal amount of normal saline. After modeling, the mice were administrated with drugs. The NC group was injected with normal saline once a day, 0.15 mL/mouse each time. The experimental group A, experimental group B and positive control group were injected with modeling agent (testosterone), and administrated with drugs after 2 hours, and the dose of modeling agent was 0.2 mL/mouse. The experimental group A and experimental group B were injected on the back once a day, 0.15 mL/mouse each time. The positive control minoxidil group was applied 5% minoxidil externally, 0.01 mL/mouse, once a day. The positive control finasteride group was applied finasteride at a concentration of 13 μg/mL, 0.2 mL/mouse, once a day.

B1: CRT-2: fragment (1-349 aa) of recombinantly expressed CRT, amino acid sequence SEQ ID NO: 9 (protein)
chain: EPAVYFKEQFLDGDGWTSRWIESKHKSDFGKFVLSSGKFYGDEEKDKGLQTSQDARFYALSASFEPFSNKGQTLVVQFTVKHEQNIDCGGGYVKLFPNSLDQTDMHGDSEYNIMFGPDICGPGTKKVHVIFNYKGKNVLINKDIRCKDDEFTHLYTLIVRPDNTYEVKIDNSQVESGSLEDDWDFLPPKKIKDPDASKPEDWDERAKIDDPTDSKPEDWDKPEHIPDPDAKKPEDWDEEMDGEWEPPVIQNPEYKGEWKPRQIDNPDYKGTWIHPEIDNPEYSPDPSIYAYDNFGVLGLDLWQVKSGTIFDNFLITNDEAYAEEFGNETWGVTKAAEKQMKDKQDEEQR
changes in hair observed by dermatoscope (21 days, compared with the model group (frizzy hair), proteins 0.21 mg/ml injected on the back once a day, minoxidil 5% external, finasteride 13 μg/mL): smoother | hair cuticles observed by scanning electron microscopy (21 days, proteins 0.21 mg/ml injected on the back once a day, minoxidil 5% external, finasteride 13 μg/mL, listed as experimental group B): arranged neatly; also recorded: denser than those of group A | hair shafts (scanning electron microscopy, FIG. 18 vs FIG. 19) (first experiment, comparison of experimental groups B and A): thicker than those of experimental group A
